# T1: NOD mouse SIRP-α D1 domain (mouse (NOD strain))
# T1 construct: also called mouse NOD SIRPα
# T1 chain: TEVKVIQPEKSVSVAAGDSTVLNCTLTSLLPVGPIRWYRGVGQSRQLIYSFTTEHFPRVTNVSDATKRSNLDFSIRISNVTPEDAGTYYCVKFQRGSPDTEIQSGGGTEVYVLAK
# T2: cynomolgus SIRP-α D1 domain (SEQ ID NO:11) (cynomolgus, UniProt Q5TFQ8 30-148 (human entry), limits assumed)
# T2 construct: also called cyno1
# T2 chain: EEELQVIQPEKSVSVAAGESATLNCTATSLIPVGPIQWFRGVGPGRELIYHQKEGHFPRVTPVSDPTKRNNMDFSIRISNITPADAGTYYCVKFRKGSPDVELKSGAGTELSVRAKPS
# T3: NOD mouse SIRP-α D1 domain (mouse (NOD strain))
# T3 chain: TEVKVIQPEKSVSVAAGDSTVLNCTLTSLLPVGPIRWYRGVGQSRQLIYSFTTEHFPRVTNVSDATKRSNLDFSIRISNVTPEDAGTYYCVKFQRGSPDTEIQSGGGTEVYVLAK
# T4: BALB/c mouse SIRP-α D1 domain (mouse (BALB/c strain))
# T4 chain: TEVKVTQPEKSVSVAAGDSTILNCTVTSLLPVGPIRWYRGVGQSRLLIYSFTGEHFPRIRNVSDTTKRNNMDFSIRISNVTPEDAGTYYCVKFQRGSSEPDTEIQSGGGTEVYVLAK
# T5: C57BL/6 mouse SIRP-α D1 domain (mouse (C57BL/6 strain), UniProt P97797 32-148)
# T5 sequence: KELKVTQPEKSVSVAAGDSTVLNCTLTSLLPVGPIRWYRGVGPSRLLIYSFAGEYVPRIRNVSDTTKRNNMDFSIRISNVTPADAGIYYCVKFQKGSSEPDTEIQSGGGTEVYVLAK
# T6: cynomolgus SIRP-α D1 domain (SEQ ID NO:12) (cynomolgus, UniProt Q5TFQ8 30-148 (human entry), limits assumed)
# T6 construct: also called cyno2; Cyno2
# T6 chain: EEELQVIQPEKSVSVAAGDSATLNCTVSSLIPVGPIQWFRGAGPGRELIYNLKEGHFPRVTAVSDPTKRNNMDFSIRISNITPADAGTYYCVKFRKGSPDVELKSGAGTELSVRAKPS
# T7: mouse 129 SIRP-α (mouse (129 strain), UniProt P97797 32-150)
# T7 construct: also called m129
# T7 chain: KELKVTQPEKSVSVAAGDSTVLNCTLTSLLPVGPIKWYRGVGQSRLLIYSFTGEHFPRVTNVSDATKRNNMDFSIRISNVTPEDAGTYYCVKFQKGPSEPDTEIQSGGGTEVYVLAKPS
# T8: cynomolgus SIRP-α (cynomolgus monkey, UniProt Q5TFQ8 30-148 (human entry), limits assumed)
# T8 construct: also called cyno1
# T8 chain: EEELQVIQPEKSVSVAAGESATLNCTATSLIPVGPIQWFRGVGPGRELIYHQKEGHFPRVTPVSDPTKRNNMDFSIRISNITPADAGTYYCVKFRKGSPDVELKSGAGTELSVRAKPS
# How the values were obtained:
# [1] = biological target: T9, human SIRP-α v2 D1 domain (human); test: ELISA, target coated on the plate, scFv-Fc titrated from 0.008 to about 1 µg/ml, OD 405
# T9 construct: biotinylated and captured on avidin in the ELISA; also called human v2
# Protocol: (§1) ELISA assays were carried out to screen binding of antibody clones to SIRP analytes and SIRP-α:CD47 complex. […] Plates were blocked with PBS™ (Phosphate Buffered Saline pH 7.4, 0.05% Tween®20 polysorbate, 3% milk), 50 ul of supernatant containing the secreted scFv-Fc are added for 1 hr at room temp. Plates were washed with PBST. 50 ul of anti-hFc-HRP (1:5000 Rockland 609-4303) added for 1 hr at room temp. Plates were washed with PBST. TMB was developed for 5 min and stopped with 1N HCl. ELISA results were read using BioTek Synergy H1 Hybrid Reader. The corresponding proteins used for the assay and described here are: human SIRPα V1 (SEQ ID NO: 5); human SIRPα V2 (SEQ ID NO:6); cynomolgus SIRPα (SEQ ID NO:11); mouse NOD SIRPα (SEQ ID NO: 8); human SIRPγ (SEQ ID NO: 15); CD47 (SEQ ID NO: 16); high affinity SIRPα V1 (SEQ ID NO: 42); high affinity SIRPα V2 (SEQ ID NO:17).
# T9 sequence (chain, as listed by the source limits assumed): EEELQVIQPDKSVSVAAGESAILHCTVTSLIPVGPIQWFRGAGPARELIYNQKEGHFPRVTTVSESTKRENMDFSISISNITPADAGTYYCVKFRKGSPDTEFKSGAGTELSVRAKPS
# [2] = biological target: T1, NOD mouse SIRP-α D1 domain; test: as above
# Protocol: as §1
# human SIRPγ isoform 1 [3] = biological target: T10, human SIRPγ isoform 1 (human, UniProt Q9P1W8 29-147); test: as above
# T10 construct: also called human SIRP-γ v1; sirpg
# Protocol: as §1
# T10 sequence (Q9P1W8 29-147 limits assumed): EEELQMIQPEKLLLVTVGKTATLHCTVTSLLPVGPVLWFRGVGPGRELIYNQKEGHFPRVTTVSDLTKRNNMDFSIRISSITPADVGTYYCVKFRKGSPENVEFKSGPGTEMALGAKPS
# [4] = biological target: T11, human SIRP-α v2 D1 domain (human); test: SPR, antibody immobilised on GLC chip; Table M cell, 119 Mut/mut on human v2
# T11 construct: also called human v2; human α v2
# Summary of the method: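 Protein A-purified antibodies were diluted to 80 nM in 10 mM sodium acetate pH 4.5 and amine-coupled (~1000 RU) to a GLC chip of a ProteOn XPR36 biosensor. SIRP analytes were injected one-shot at 100, 33, 11, 3.7, 1.2 and 0 nM in PBS pH 7.4 with 0.01% Tween-20 at 25° C. Association ran 90 s at 100 μL/min and dissociation 1200 s. KD came from double-referenced data fitted globally to a Langmuir model, as kd/ka.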
# T11 sequence (chain, as listed by the source limits assumed): as the sequence (chain, as listed by the source limits assumed) above
# [5] = biological target: T12, human SIRP-α v1 D1 domain (human, UniProt P78324 31-149); test: SPR, antibody immobilised on GLC chip
# T12 construct: also called human v1; human α v1
# T12 sequence (P78324 31-149 limits assumed): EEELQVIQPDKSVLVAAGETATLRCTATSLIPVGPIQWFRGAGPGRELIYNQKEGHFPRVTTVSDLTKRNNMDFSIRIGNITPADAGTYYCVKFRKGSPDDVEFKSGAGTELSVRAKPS
# [6] = biological target: T2, cynomolgus SIRP-α D1 domain (SEQ ID …); test: SPR, antibody immobilised on GLC chip
# human SIRPβ isoform 1 [7] = biological target: T13, human SIRPβ isoform 1 (human, UniProt O00241 30-148); test: SPR, Langmuir fit
# T13 construct: also called sirpb1; Sirpb1
# T13 sequence (O00241 30-148 limits assumed): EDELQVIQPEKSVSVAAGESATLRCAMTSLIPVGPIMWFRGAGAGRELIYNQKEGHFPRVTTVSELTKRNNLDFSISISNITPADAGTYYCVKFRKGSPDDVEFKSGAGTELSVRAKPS
# [8] = biological target: T12, human SIRP-α v1 D1 domain; test: SPR, Langmuir fit
# [9] = biological target: T2, cynomolgus SIRP-α D1 domain (SEQ ID …); test: SPR, Langmuir fit
# [10] = biological target: T11, human SIRP-α v2 D1 domain; test: SPR, Langmuir fit
# [11] = biological target: T3, NOD mouse SIRP-α D1 domain; test: SPR, Langmuir fit
# human SIRPβ isoform 2 = biological target: T14, human SIRPβ isoform 2 (human, UniProt Q5TFQ8 30-148); test: SPR, Langmuir fit
# T14 construct: also called Sirpb2; beta isoform 2
# T14 sequence (Q5TFQ8 30-148 limits assumed): as the sequence (P78324 31-149 limits assumed) above, with V13I, L14S, T20S, R24H, A27V, G79S, D101H counted along it
# [12] = biological target: T4, BALB/c mouse SIRP-α D1 domain; test: SPR, Langmuir fit
# human SIRPγ isoform 1 [13] = biological target: T15, human SIRPγ isoform 1 (human, UniProt Q9P1W8 29-147); test: SPR, Langmuir fit
# T15 construct: also called sirpg; sirp-g
# T15 sequence (Q9P1W8 29-147 limits assumed): as the sequence (Q9P1W8 29-147 limits assumed) above
# [14] = biological target: T5, C57BL/6 mouse SIRP-α D1 domain; test: SPR, Langmuir fit
# [15] = biological target: T6, cynomolgus SIRP-α D1 domain (SEQ ID …); test: SPR, Langmuir fit
# mouse 129 SIRP-α = biological target: T7, mouse 129 SIRP-α; test: SPR Koff +/-
# Summary of the method: (§2)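 SIRP analytes at nominal, A280-based concentrations were injected in one-shot kinetic mode over purified antibodies that were amine-coupled to a GLC chip or captured by biotinylated Protein A on an NLC chip of a ProteOn XPR36. All runs were at 25° C in PBS pH 7.4 with 0.01% Tween-20. Apparent ka and kd came from a global simple Langmuir fit of double-referenced data, with KD as their ratio kd/ka.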
# human SIRPγ isoform 1 [16] = biological target: T16, human SIRPγ isoform 1 (human, UniProt Q9P1W8 29-147); test: SPR Koff +/-
# T16 construct: also called Gamma; Human SIRPg
# Summary of the method: as §2
# T16 sequence (Q9P1W8 29-147 limits assumed): as above
# human SIRPβ isoform 1 [17] = biological target: T17, human SIRPβ isoform 1 (human, UniProt O00241 30-148); test: SPR Koff +/-
# T17 construct: also called Beta; Human SIRPb
# Summary of the method: as §2
# T17 sequence (O00241 30-148 limits assumed): as the sequence (O00241 30-148 limits assumed) above
# cynomolgus SIRP-α = biological target: T8, cynomolgus SIRP-α; test: SPR Koff +/-
# Summary of the method: as §2
# human SIRP-α v2 = biological target: T18, human SIRP-α v2 (human); test: SPR KD
# T18 construct: also called Human v2; Human V2
# T18 sequence (chain, as listed by the source limits assumed): as the sequence (chain, as listed by the source limits assumed) above
# Summary of the method: as §2
# human SIRP-α v1 = biological target: T19, human SIRP-α v1 (human, UniProt P78324 31-149); test: SPR
# T19 construct: also called Human v1; Human V1
# T19 sequence (P78324 31-149 limits assumed): as the sequence (P78324 31-149 limits assumed) above
# Summary of the method: as §2
binder,measurement,setting,value
"S138 (scFv, also called clone S138) scFv: EIVLTQSPGTLSVSPGERVILTCRASQSVDTYNLAWYQQKPGQAPRLLIYDLSTRATGIPDRFSGSGSGTEFTLTINSLEPEDFAVYYCHQYYDWPPYTFGGGTKVEIKGQSSRSSGGGGSSGGGGSDVQLVESGGGVVRPGESLRLSCAASGFTFSNYAMNWVRQAPGEGLEWVSGISGRGGDTYYADSVKGRFTISRDNSKNTLYLQMNSLRAEDTAIYYCAKGTWNYGSFDYWGLGTLVTVSSSLDPKSSDKTDTCPPCPAPELLGGPSVFLFPPKPKDTLMISRTPEVTCVVVDVSHEDPEVKFNWYVDGV",binding result,[1],no binding (tested: about 1 µg/ml)
same,binding result,[2],no binding (tested: about 1 µg/ml)
same,binding result,human SIRPγ isoform 1 [3],no binding (tested: about 1 µg/ml)
"antibody 119 variant Mut/mut (VL mut all / VH mut) (antibody, human IgG1, V domains shown, Human IgG1 with L234A/L235A/G237A/N297A; Labels are in the order VL/VH) VH: EVQLLESGGGVVQPGGSLRLSCAASGFSFSNFAVTWVRQAPGKGLEWVSTIGSGDTYYADSVKGRFTISRDNSKNTLYLQMNSLRAEDTAVYYCAKDSTVSWSGDFFDYWGQGTLVTVSS VL: EIVLTQSPATLSVSPGERATLSCRASQNVKNDLAWYQQKPGQAPRLLIYAARIRETGIPARFSGSGSGTEFTLTISSLQSEDFAVYYCQQYYDWPPFTFGGGTKVEIK",Kd,[4],0.0875 nM
same,Kd,[5],0.317 nM
same,Kd,[6],0.195 nM
"AB3 (as in Table J1) (antibody, V domains shown, also called antibody 3) VH: AVTLDESGGGLQTPGGALSLVCKASGFIFSDYGMNWVRQAPGKGLEFVAQITSGSRTYYGAAVKGRATISRDNRQSTVKLQLNNLRAEDTGIYFCARDFGSGVGSIDAWGNGTEVIVSS VL: ALTQPASVSANLGGTVKITCSGSRGRYGWYQQRSPGSAPVTVIYRDNQRPSNIPSRFSSSTSGSTSTLTITGVQADDESVYFCGSYDGSIDIFGAGTTLTVL",Kd,human SIRPβ isoform 1 [7],1.63 nM
same,Kd,[8],0.162 nM
same,Kd,[9],2.29 nM
same,Kd,[10],0.0767 nM
same,Kd,[11],1.63 nM
same,Kd,human SIRPβ isoform 2,0.0678 nM
same,Kd,[12],1.16 nM
same,Kd,human SIRPγ isoform 1 [13],83.6 nM
same,Kd,[14],3.65 nM
same,Kd,[15],2.85 nM
"antibody 123 (antibody, V domains shown, also called S123) VH: VQLVESGGGLVQPGGSLRLSCTASGFTFRNYGMSWVRQAPGEGLEWVSASSGSGSTYYTDSVKGRFTISRDNSKNTLYLQMNSLRAEDTAIYYCAKVTWNNFFDYWGLGTLVTVSS VL: EIVLTQSPGTLSVSPGERVTLTCRASQGIAGKIAWYQQKPGQAPRLLIYDASSRATGIPGRFSGSGSGTEFTLTITSLQSEDFAVYYCQQHYDWSPLTFGGGTKVEIK",binding result,mouse 129 SIRP-α,no binding
same,binding result,human SIRPγ isoform 1 [16],binds
same,binding result,human SIRPβ isoform 1 [17],no binding
same,binding result,cynomolgus SIRP-α,binds
same,binding result,human SIRP-α v2,no binding
same,Kd,human SIRP-α v1,0.605 nM
"antibody 194 (antibody, V domains shown, also called S194) VH: DVQLVESGGGVVRPGESLRLSCAASGFTFRNYGMSWVRQAPGEGLEWVSASSGSGSTYYADSVKGRFTISRDNSKNTLYLQMNSLRAEDTAIYYCAKVTWNNFFDYWGLGTLVTVSS VL: EIVLAQSPDTLSVSPGERATLTCRASQDVAGKLAWYQQKPGQAPRLLIHATSSRADGIPARFSGSGSGTEFTLTITGLQSEDFAVYYCQQHYDWSPLTFGGGTKVEIK",binding result,human SIRPβ isoform 1 [17],no binding
same,binding result,human SIRP-α v2,no binding
same,Kd,human SIRP-α v1,0.497 nM

# Reference: patent US20210363269A1 (ALX ONCOLOGY, published 2021)
